The source of these data is patent US7067474B1, “Agents for treating human illnesses based on β-catenin, and the production and use thereof” (Max-Delbruck-Centrum fur Molekulare Medizin, priority 1998, dated 2006).

Holding throughout (test): yeast 2-hybrid, β-galactosidase reporter; percent of wild type β-catenin
Assay [1] has as its target human APC amino acids His1012-Glu1215 (APC 15 amino acid repeats) fused to Lex-A (vector BTM 116) (human).
For assay [2], the target named is conductin amino acids Ala342-Arg465 fused to Lex-A (vector BTM 116) (UniProt P0A7C2).
In assay [3] the target is human APC amino acids Ser1259-Asp1400 (APC 20 amino acid repeats) fused to Lex-A (vector BTM 116) (human).
In assay [4] the target is E-cadherin amino acids Gln773-Asp884 (cytoplasmatic domain) fused to Lex-A (vector BTM 116) (UniProt P0A7C2 1-202; P09803 773-884). Here is the method: (§1) 4. Preparation and testing of mutants of β-catenin modulating the interaction with LEF-1, APC, conductin or E-cadherin The mutagenesis of β-catenin in the armadillo repeats 3–8 was carried out by means of the "mutagenesis kit" of the company Clontech according to the producer's record and the mutants were checked by sequencing (FIG. 5). In all mutants the original amino acid was substituted by alanine. For analyzing the interactions the cDNA of human β-catenin (armadillo repeat 3 up to the C-terminal end of the protein) coding for the amino acids Leu218–Leu7 µl or its mutants was cloned into the fusion vector for the activation domain of Gal-4 (pGAD424, Clontech). The cDNA for the binding domains of the interaction partners was cloned into the Lex-A fusion vector BTM 116. To this end, the cDNA of LEF-1 for the amino acids 1–99, conductin for the amino acids Ala342–ARG465; of human APC for the amino acids His1012–Glu1215 (APC 15 amino acid repeats) and for the amino acids Ser1259Asp 1400 (APC 20 amino acid repeats) and E-cadherin for the amino acids Gin773–Asp884 (cytoplasmatic domain) were amplified with the respective primers PCR. The interaction of the Lex-A hybrids with β-catenin and its mutants was quantified by means of the β-galactosidase reporter activity in the yeast 2-hybrid system (report: "Matchmaker". Clontech) (Tab. 2 and FIG. 6).

In assay [5] the target is T1, LEF-1 amino acids 1-99 fused to Lex-A (vector BTM 116) (UniProt P0A7C2 1-202; P27782 1-99).
T1 construct: Order of the fusion follows the vector; also called LEF-1/TCF-4
The procedure: as §1

conductin amino acids Ala342-Arg465 fused to Lex-A (vector BTM 116), sequence (P0A7C2 other isoform, or with tags, fused parts or gaps limits assumed, form in doubt): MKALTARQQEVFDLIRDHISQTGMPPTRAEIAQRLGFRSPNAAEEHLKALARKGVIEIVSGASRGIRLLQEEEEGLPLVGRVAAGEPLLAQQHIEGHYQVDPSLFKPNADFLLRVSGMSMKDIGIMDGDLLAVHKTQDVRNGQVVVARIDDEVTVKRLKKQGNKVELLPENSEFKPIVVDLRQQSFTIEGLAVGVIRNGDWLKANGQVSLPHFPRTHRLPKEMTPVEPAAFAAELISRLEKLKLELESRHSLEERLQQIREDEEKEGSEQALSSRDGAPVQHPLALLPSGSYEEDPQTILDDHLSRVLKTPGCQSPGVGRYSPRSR
human APC amino acids His1012-Glu1215 (APC 15 amino acid repeats) fused to Lex-A (vector BTM 116) (human), sequence (P0A7C2 other isoform, or with tags, fused parts or gaps limits assumed, form in doubt): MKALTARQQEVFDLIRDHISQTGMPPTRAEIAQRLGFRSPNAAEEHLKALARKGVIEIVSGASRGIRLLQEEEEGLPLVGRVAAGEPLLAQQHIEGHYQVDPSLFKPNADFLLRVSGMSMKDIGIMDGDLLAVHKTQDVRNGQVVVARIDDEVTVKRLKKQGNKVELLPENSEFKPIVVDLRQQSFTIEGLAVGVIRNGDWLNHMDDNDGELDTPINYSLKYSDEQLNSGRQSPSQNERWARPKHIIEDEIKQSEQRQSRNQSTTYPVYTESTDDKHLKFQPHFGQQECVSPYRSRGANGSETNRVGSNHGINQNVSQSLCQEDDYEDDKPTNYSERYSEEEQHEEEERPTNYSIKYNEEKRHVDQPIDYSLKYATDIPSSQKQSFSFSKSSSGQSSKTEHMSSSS
T1 sequence (P0A7C2 other isoform, or with tags, fused parts or gaps limits assumed): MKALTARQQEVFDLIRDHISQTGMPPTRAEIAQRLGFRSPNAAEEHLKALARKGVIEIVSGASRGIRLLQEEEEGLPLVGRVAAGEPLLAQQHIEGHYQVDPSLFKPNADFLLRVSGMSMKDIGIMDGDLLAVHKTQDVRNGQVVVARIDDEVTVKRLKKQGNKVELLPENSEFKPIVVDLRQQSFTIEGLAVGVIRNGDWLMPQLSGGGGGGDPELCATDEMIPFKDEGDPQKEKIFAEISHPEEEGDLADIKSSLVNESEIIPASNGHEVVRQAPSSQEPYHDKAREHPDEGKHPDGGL
E-cadherin amino acids Gln773-Asp884 (cytoplasmatic domain) fused to Lex-A (vector BTM 116), sequence (P0A7C2 other isoform, or with tags, fused parts or gaps limits assumed, form in doubt): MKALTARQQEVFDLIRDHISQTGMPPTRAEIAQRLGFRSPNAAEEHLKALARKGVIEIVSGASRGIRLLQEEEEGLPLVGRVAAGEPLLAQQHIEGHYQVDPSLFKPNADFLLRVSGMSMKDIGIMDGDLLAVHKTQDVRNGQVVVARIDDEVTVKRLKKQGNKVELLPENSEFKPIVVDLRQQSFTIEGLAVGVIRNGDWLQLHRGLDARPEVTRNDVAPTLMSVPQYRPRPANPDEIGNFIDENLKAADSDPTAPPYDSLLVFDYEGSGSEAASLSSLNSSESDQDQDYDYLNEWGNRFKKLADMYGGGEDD
human APC amino acids Ser1259-Asp1400 (APC 20 amino acid repeats) fused to Lex-A (vector BTM 116) (human), sequence (P0A7C2 other isoform, or with tags, fused parts or gaps limits assumed, form in doubt): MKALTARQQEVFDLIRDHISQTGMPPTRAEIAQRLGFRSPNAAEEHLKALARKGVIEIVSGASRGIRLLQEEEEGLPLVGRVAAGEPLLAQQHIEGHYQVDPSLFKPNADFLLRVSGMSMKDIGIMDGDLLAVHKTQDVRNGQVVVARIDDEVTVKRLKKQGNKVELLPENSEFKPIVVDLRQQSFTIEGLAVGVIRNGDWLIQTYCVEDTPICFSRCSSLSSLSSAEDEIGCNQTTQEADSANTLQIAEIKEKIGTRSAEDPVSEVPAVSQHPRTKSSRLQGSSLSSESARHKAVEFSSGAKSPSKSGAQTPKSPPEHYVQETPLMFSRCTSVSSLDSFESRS

“human β-catenin (Leu218-Leu781) mutant Lys 435 to alanine, Gal-4 activation domain fusion (from UniProt P35222 218-781)”: the share of the interaction with wild type β-catenin in percent in assay [1] worked out at 30%; in assay [2], 42%.
For “human β-catenin (Leu218-Leu781) mutant Trp 338 to alanine, Gal-4 activation domain fusion (from UniProt P35222 218-781)”, the share of the interaction with wild type β-catenin in percent turned out to be 20% in assay [2] and 55% in assay [3].
For “human β-catenin (Leu218-Leu781) mutant Trp 383 to alanine, Gal-4 activation domain fusion (from UniProt P35222 218-781)”, the share of the interaction with wild type β-catenin in percent was found to be 59% in assay [1] and 0% in assay [3].

B1: human β-catenin (Leu218-Leu781) mutant Arg 274 to alanine, Gal-4 activation domain fusion (other, not shown: large carriers; small tags and cut ends)
chain: LHNLSHHREGLLAIFKSGGIPALVKMLGSPVDSVLFYAITTLHNLLLHQEGAKMAVALAGGLQKMVALLNKTNVKFLAITTDCLQILAYGNQESKLIILASGGPQALVNIMRTYTYEKLLWTTSRVLKVLSVCSSNKPAIVEAGGMQALGLHLTDPSQRLVQNCLWTLRNLSDAATKQEGMEGLLGTLVQLLGSDDINVVTCAAGILSNLTCNNYKNKMMVCQVGGIEALVRTVLRAGDREDITEPAICALRHLTSRHQEAEMAQNAVRLHYGLPVVVKLLHPPSHWPLIKATVGLIRNLALCPANHAPLREQGAIPRLVQLLVRAHQDTQRRTSMGGTQQQFVEGVRMEEIVEGCTGALHILARDVHNRIVIRGLNTIPLFVQLLYSPIENIQRVAAGVLCELAQDKEAAEAIEAEGATAPLTELLHSRNEGVATYAAAVLFRMSEDKPQDYKKRLSVELTSSLFRTEPMAWNETADLGLDIGAQGEPLGYRQDDPSYRSFHSGGYGQDALGMDPMMEHEMGGHHPGADYPVDGLPDLGHAQDLMDGLPPGDSNQLAWFDTDL
As for B1, the share of the interaction with wild type β-catenin in percent in assay [2] amounted to 29%; in assay [3] it was 40%; in assay [4] it was 50%.

B2: human β-catenin (Leu218-Leu781) mutant Arg 386 to alanine, Gal-4 activation domain fusion (other, not shown: large carriers; small tags and cut ends)
chain: LHNLSHHREGLLAIFKSGGIPALVKMLGSPVDSVLFYAITTLHNLLLHQEGAKMAVRLAGGLQKMVALLNKTNVKFLAITTDCLQILAYGNQESKLIILASGGPQALVNIMRTYTYEKLLWTTSRVLKVLSVCSSNKPAIVEAGGMQALGLHLTDPSQRLVQNCLWTLANLSDAATKQEGMEGLLGTLVQLLGSDDINVVTCAAGILSNLTCNNYKNKMMVCQVGGIEALVRTVLRAGDREDITEPAICALRHLTSRHQEAEMAQNAVRLHYGLPVVVKLLHPPSHWPLIKATVGLIRNLALCPANHAPLREQGAIPRLVQLLVRAHQDTQRRTSMGGTQQQFVEGVRMEEIVEGCTGALHILARDVHNRIVIRGLNTIPLFVQLLYSPIENIQRVAAGVLCELAQDKEAAEAIEAEGATAPLTELLHSRNEGVATYAAAVLFRMSEDKPQDYKKRLSVELTSSLFRTEPMAWNETADLGLDIGAQGEPLGYRQDDPSYRSFHSGGYGQDALGMDPMMEHEMGGHHPGADYPVDGLPDLGHAQDLMDGLPPGDSNQLAWFDTDL
For the molecule B2, the values for the share of the interaction with wild type β-catenin in percent in assay [1], in assay [2] and in assay [5] were 12%, 45% and 35%, respectively.

B3: human β-catenin (Leu218-Leu781) mutant His 470 to alanine, Gal-4 activation domain fusion (other, not shown: large carriers; small tags and cut ends)
chain: LHNLSHHREGLLAIFKSGGIPALVKMLGSPVDSVLFYAITTLHNLLLHQEGAKMAVRLAGGLQKMVALLNKTNVKFLAITTDCLQILAYGNQESKLIILASGGPQALVNIMRTYTYEKLLWTTSRVLKVLSVCSSNKPAIVEAGGMQALGLHLTDPSQRLVQNCLWTLRNLSDAATKQEGMEGLLGTLVQLLGSDDINVVTCAAGILSNLTCNNYKNKMMVCQVGGIEALVRTVLRAGDREDITEPAICALRALTSRHQEAEMAQNAVRLHYGLPVVVKLLHPPSHWPLIKATVGLIRNLALCPANHAPLREQGAIPRLVQLLVRAHQDTQRRTSMGGTQQQFVEGVRMEEIVEGCTGALHILARDVHNRIVIRGLNTIPLFVQLLYSPIENIQRVAAGVLCELAQDKEAAEAIEAEGATAPLTELLHSRNEGVATYAAAVLFRMSEDKPQDYKKRLSVELTSSLFRTEPMAWNETADLGLDIGAQGEPLGYRQDDPSYRSFHSGGYGQDALGMDPMMEHEMGGHHPGADYPVDGLPDLGHAQDLMDGLPPGDSNQLAWFDTDL
With B3, the share of the interaction with wild type β-catenin in percent in assay [1] was determined as 60%; in assay [3], 47%; in assay [5], 2%.

B4: human β-catenin (Leu218-Leu781) mutant Arg 342 to alanine, Gal-4 activation domain fusion (other, not shown: large carriers; small tags and cut ends)
chain: LHNLSHHREGLLAIFKSGGIPALVKMLGSPVDSVLFYAITTLHNLLLHQEGAKMAVRLAGGLQKMVALLNKTNVKFLAITTDCLQILAYGNQESKLIILASGGPQALVNIMRTYTYEKLLWTTSAVLKVLSVCSSNKPAIVEAGGMQALGLHLTDPSQRLVQNCLWTLRNLSDAATKQEGMEGLLGTLVQLLGSDDINVVTCAAGILSNLTCNNYKNKMMVCQVGGIEALVRTVLRAGDREDITEPAICALRHLTSRHQEAEMAQNAVRLHYGLPVVVKLLHPPSHWPLIKATVGLIRNLALCPANHAPLREQGAIPRLVQLLVRAHQDTQRRTSMGGTQQQFVEGVRMEEIVEGCTGALHILARDVHNRIVIRGLNTIPLFVQLLYSPIENIQRVAAGVLCELAQDKEAAEAIEAEGATAPLTELLHSRNEGVATYAAAVLFRMSEDKPQDYKKRLSVELTSSLFRTEPMAWNETADLGLDIGAQGEPLGYRQDDPSYRSFHSGGYGQDALGMDPMMEHEMGGHHPGADYPVDGLPDLGHAQDLMDGLPPGDSNQLAWFDTDL
On to B4, for which the values for the share of the interaction with wild type β-catenin in percent in assay [2], in assay [3] and in assay [4] were 20%, 29% and 41%, respectively.

B5: human β-catenin (Leu218-Leu781) mutant Arg 469 to alanine, Gal-4 activation domain fusion (other, not shown: large carriers; small tags and cut ends)
chain: LHNLSHHREGLLAIFKSGGIPALVKMLGSPVDSVLFYAITTLHNLLLHQEGAKMAVRLAGGLQKMVALLNKTNVKFLAITTDCLQILAYGNQESKLIILASGGPQALVNIMRTYTYEKLLWTTSRVLKVLSVCSSNKPAIVEAGGMQALGLHLTDPSQRLVQNCLWTLRNLSDAATKQEGMEGLLGTLVQLLGSDDINVVTCAAGILSNLTCNNYKNKMMVCQVGGIEALVRTVLRAGDREDITEPAICALAHLTSRHQEAEMAQNAVRLHYGLPVVVKLLHPPSHWPLIKATVGLIRNLALCPANHAPLREQGAIPRLVQLLVRAHQDTQRRTSMGGTQQQFVEGVRMEEIVEGCTGALHILARDVHNRIVIRGLNTIPLFVQLLYSPIENIQRVAAGVLCELAQDKEAAEAIEAEGATAPLTELLHSRNEGVATYAAAVLFRMSEDKPQDYKKRLSVELTSSLFRTEPMAWNETADLGLDIGAQGEPLGYRQDDPSYRSFHSGGYGQDALGMDPMMEHEMGGHHPGADYPVDGLPDLGHAQDLMDGLPPGDSNQLAWFDTDL
As for B5, the “share of the interaction with wild type β-catenin in percent” value in assay [5] came to 17%; in assay [4], 50%.

B6: human β-catenin (Leu218-Leu781) mutant Lys 345 to alanine, Gal-4 activation domain fusion (other, not shown: large carriers; small tags and cut ends)
chain: LHNLSHHREGLLAIFKSGGIPALVKMLGSPVDSVLFYAITTLHNLLLHQEGAKMAVRLAGGLQKMVALLNKTNVKFLAITTDCLQILAYGNQESKLIILASGGPQALVNIMRTYTYEKLLWTTSRVLAVLSVCSSNKPAIVEAGGMQALGLHLTDPSQRLVQNCLWTLRNLSDAATKQEGMEGLLGTLVQLLGSDDINVVTCAAGILSNLTCNNYKNKMMVCQVGGIEALVRTVLRAGDREDITEPAICALRHLTSRHQEAEMAQNAVRLHYGLPVVVKLLHPPSHWPLIKATVGLIRNLALCPANHAPLREQGAIPRLVQLLVRAHQDTQRRTSMGGTQQQFVEGVRMEEIVEGCTGALHILARDVHNRIVIRGLNTIPLFVQLLYSPIENIQRVAAGVLCELAQDKEAAEAIEAEGATAPLTELLHSRNEGVATYAAAVLFRMSEDKPQDYKKRLSVELTSSLFRTEPMAWNETADLGLDIGAQGEPLGYRQDDPSYRSFHSGGYGQDALGMDPMMEHEMGGHHPGADYPVDGLPDLGHAQDLMDGLPPGDSNQLAWFDTDL
In the case of B6, the share of the interaction with wild type β-catenin in percent in assay [2] was 22%; in assay [5] it was 38%; in assay [4], 27%.
